Numbered stars: 1 amine (or outer) side, 2 acyl side, 3 side chain; on linkers, the order of the positions; unused ones are H or OH. Square brackets hold non-standard residues; d marks the D form. * marks the point of attachment. AzaAsn = aza-asparagine, NC(=O)CN(N[*:1])C(=O)[*:2]; (S,S)‑EPCOOEt = (S,S)-epoxide ethyl ester; CH:CH‑COOEt = CCOC(=O)/C=C/*; Suc = O=C(CCC(=O)[*:2])[*:1]; Cbz = O=C(OCc1ccccc1)*
What was measured:
[1] = target: recombinant legumain (Homo sapiens (Human)) (UniProt Q99538); assay: cell-based or functional assay
human legumain = target: T1, human legumain (human, UniProt Q99538 19-323, limits assumed); assay: cell-based or functional assay
T1 sequence: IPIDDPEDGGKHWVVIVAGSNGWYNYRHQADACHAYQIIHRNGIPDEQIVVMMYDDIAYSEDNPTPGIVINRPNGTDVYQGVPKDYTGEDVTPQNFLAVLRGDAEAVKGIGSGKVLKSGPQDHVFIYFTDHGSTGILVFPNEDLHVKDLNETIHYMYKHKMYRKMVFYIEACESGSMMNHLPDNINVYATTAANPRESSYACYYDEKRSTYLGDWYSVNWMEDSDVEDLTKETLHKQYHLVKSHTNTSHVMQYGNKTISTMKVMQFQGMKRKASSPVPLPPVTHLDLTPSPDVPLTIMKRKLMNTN

recombinant legumain = target: T2, recombinant legumain (Homo sapiens (Human), UniProt Q99538 19-323, limits assumed); assay: cell-based or functional assay
T2 sequence: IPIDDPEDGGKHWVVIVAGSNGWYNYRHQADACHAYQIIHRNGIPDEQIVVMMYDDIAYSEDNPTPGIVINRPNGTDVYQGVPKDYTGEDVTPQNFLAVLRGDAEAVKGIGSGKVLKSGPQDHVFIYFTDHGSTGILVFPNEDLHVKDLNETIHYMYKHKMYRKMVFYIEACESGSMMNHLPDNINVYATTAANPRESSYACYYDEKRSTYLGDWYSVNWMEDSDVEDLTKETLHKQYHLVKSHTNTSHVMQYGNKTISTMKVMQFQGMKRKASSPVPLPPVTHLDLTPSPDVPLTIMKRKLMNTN

[2] = target: T3, αvβ3 integrin (added to the legumain activity assays), P06756
T3 chain 1: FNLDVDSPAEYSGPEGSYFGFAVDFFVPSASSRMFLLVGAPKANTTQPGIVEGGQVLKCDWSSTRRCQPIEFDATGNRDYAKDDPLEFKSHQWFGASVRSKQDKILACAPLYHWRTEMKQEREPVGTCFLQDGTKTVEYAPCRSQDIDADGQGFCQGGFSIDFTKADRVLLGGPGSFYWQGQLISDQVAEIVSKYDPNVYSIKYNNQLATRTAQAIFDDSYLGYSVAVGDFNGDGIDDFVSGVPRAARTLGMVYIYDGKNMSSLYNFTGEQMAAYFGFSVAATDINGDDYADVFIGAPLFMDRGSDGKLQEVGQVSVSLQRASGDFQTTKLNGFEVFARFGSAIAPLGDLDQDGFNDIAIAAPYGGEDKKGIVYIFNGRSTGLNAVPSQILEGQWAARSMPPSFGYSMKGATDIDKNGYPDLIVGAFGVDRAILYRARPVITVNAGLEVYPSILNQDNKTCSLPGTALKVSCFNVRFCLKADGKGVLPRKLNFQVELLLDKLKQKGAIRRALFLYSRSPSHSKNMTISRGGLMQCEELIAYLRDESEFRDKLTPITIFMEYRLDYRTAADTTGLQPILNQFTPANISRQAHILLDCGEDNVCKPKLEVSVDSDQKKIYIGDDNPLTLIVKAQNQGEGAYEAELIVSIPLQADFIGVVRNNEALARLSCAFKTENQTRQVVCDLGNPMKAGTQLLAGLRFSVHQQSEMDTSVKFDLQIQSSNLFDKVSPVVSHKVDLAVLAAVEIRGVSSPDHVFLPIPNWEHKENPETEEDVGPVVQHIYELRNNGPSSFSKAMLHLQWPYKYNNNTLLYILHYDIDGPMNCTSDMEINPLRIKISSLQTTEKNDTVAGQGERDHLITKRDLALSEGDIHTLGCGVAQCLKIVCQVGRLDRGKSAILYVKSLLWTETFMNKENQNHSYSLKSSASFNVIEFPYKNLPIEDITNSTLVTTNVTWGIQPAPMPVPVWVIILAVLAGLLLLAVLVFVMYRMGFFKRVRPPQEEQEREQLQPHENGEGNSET
T3 chain 2: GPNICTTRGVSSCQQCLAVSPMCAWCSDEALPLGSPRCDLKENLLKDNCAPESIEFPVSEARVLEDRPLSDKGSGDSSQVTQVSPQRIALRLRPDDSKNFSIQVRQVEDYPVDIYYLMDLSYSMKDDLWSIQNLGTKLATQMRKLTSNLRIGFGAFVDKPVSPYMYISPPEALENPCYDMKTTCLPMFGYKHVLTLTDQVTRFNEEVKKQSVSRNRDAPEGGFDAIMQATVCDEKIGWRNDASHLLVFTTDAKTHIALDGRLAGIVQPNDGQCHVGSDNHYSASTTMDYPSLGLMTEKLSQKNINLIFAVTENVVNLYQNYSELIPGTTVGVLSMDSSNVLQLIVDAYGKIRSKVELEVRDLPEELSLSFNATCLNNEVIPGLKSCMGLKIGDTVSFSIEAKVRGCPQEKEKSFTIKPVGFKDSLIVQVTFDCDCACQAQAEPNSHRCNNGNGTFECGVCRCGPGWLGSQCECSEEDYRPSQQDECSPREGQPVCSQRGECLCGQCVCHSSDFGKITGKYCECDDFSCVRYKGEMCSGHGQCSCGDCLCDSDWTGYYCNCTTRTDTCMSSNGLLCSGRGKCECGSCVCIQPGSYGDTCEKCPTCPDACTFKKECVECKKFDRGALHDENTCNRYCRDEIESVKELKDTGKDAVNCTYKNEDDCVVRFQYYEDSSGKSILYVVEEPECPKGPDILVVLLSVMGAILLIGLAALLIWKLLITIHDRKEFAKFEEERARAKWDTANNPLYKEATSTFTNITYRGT

caspase 9, P55211 = target: T4, caspase 9, P55211
T4 chain: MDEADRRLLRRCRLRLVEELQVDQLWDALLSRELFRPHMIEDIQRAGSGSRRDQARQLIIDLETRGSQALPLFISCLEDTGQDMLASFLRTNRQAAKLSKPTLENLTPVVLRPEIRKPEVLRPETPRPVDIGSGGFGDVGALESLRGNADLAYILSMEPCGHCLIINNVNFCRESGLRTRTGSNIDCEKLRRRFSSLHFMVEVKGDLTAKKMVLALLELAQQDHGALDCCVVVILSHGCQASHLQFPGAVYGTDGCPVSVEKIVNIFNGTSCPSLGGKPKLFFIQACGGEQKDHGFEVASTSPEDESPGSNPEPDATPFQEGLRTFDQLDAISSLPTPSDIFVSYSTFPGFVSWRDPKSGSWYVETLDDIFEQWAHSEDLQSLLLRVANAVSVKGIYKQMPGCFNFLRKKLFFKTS

progelatinase A, P08253 = target: T5, progelatinase A, P08253
T5 chain: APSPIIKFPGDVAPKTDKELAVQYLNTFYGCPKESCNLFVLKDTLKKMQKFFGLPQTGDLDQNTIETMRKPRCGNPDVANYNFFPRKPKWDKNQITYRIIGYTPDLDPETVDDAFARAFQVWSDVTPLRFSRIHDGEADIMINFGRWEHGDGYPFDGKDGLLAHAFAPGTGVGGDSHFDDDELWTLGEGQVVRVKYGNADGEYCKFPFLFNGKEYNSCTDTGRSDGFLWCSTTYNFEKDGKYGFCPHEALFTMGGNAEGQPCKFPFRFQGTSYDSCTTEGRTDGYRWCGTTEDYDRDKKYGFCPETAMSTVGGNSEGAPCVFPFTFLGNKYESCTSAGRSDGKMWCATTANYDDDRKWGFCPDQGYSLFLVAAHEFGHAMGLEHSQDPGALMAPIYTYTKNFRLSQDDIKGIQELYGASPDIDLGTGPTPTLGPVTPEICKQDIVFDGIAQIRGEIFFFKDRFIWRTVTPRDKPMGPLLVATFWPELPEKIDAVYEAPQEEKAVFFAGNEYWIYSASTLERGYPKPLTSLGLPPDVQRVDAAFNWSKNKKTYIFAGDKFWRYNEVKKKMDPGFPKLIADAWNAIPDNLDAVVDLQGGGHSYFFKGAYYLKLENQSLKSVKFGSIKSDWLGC

How did the pH of peak legumain activity in the legumain:αvβ3 complex [1] turn out when “αvβ3 integrin (added to the legumain activity assays) (from UniProt P06756 31-1048; P05106 27-788) (receptor)” was run?
The pH of peak legumain activity in the legumain:αvβ3 complex was 6 pH.

How did the EC50 (µM) of LEG-3 for 50% cell death on Legumain+ 293 cells in the presence of cystatin (human legumain) turn out when cystatin was run?
Its EC50 (µM) of LEG-3 for 50% cell death on Legumain+ 293 cells in the presence of cystatin is 64.4 µM.

For Cbz-Ala-Ala-[AzaAsn]-{CH:CH‑COOBzl} [AEPI-3 (Cbz-Ala-Ala-AzaAsn-CH=CH-COOBzl)], which “IC50, amidolytic activity assay of recombinant legumain with fluorescent substrate” value (shortened to “IC50, amidolytic activity assay”) (recombinant legumain) is on record?
The value was 34 nM.

Which “IC50, amidolytic activity assay” value (recombinant legumain) does the source give for Cbz-Ala-Ala-[AzaAsn]-{(S,S)‑EPCOOEt} [AEPI-1 (Cbz-Ala-Ala-AzaAsn-(S,S)-EPCOOEt)] here?
Its value is about 20 nM.

B1: recombinant legumain (protein)
chain: IPIDDPEDGGKHWVVIVAGSNGWYNYRHQADACHAYQIIHRNGIPDEQIVVMMYDDIAYSEDNPTPGIVINRPNGTDVYQGVPKDYTGEDVTPQNFLAVLRGDAEAVKGIGSGKVLKSGPQDHVFIYFTDHGSTGILVFPNEDLHVKDLNETIHYMYKHKMYRKMVFYIEACESGSMMNHLPDNINVYATTAANPRESSYACYYDEKRSTYLGDWYSVNWMEDSDVEDLTKETLHKQYHLVKSHTNTSHVMQYGNKTISTMKVMQFQGMKRKASSPVPLPPVTHLDLTPSPDVPLTIMKRKLMNTN
How did the “legumain amidolytic activity (hydrolysis of a substrate to a fluorescent product)” value [2] turn out when B1 was run?
Its value is “binding of legumain to αvβ3 integrin can increase legumain activity nearly 100 fold”.

What about the “cathepsin B activity toward small peptidyl substrates” value (cathepsin B, P07858) of the same molecule?
The value was “cathepsin B activity toward small peptidyl substrates is not affected”.

What about the “cleavage of caspase 9 and loss of caspase 9 activity” value (caspase 9, P55211) of the same molecule?
Its value is “legumain efficiently inactivates caspase 9 and depletes the cell of pro-caspase 9”.

And the “zymogram: cleavage of MMP2 by legumain and legumain:αvβ3” value (progelatinase A, P08253)?
The value was “legumain not only removes the pro-MMP2 propeptide but also cleaves MMP2 between its proteolytic domain and its integrin binding hemopexin domain”.

B2: LEG-3 (succinyl-Ala-Ala-Asn-Leu-doxorubicin) (peptide)
peptide: Suc-AANL-doxorubicin
modifications: not fully specified (residue 1); printed as succinyl-Ala-Ala-Asn-Leu-doxorubicin
For B2, which “EC50 (µM), amount required for 50% cell death, Legumain+ 293 cells” value (human legumain) is on record?
Its value is 3.2 µM.

Which “IC50, amidolytic activity assay” value (recombinant legumain) does the source give for Cbz-Ala-Ala-[AzaAsn]-{CH:CH‑COOEt} (SMILES CCOC(=O)/C=C/C(=O)N(CC(N)=O)NC(=O)[C@H](C)NC(=O)[C@H](C)NC(=O)OCc1ccccc1) [AEPI-2 (Cbz-Ala-Ala-AzaAsn-CH=CH-COOEt)] here?
The value was about 21 nM.

With Cbz-Ala-Ala-[AzaAsn]-{CH:CH‑CON(CH3)Bzl} [AEPI-4 (Cbz-Ala-Ala-AzaAsn-CH=CH-CON(CH3)Bzl)] as the molecule, how does the “IC50, amidolytic activity assay” value (recombinant legumain) read?
Its value is 158 nM.

— patent US20090175873A1 (Scripps Research, published 2009)
